The supplement of paper PMC12042874
± gives the uncertainty stated by the source.

Assay: amyloid nucleation score (Sup35N fusion, yeast selection) (log enrichment); library NNK3; higher = more nucleation; inactive = no reads after selection
Outline: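 The nucleation score equals the log enrichment of output over input reads from DiMSum, centred on the mode score of non-aggregating sequences. It was computed only for sequences with 100 or more input reads. The reads came from Illumina sequencing of plasmid inserts from psi-negative yeast expressing Sup35N fused to peptides of 20 random codons, induced with 100 μM copper sulfate for 24 hours and grown 7 days at 30°C without adenine and uracil.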

Row | Substance | amyloid nucleation score
1 | VTSVHTALFSLQNDWNNKGD | inactive
2 | VTSVRPIYSRCLLNYMLRSV | inactive
3 | VTTIVYDSYCPLPRCWTWVG | inactive
4 | VTTSMCAIQD | inactive
5 | VTVIYNVDYCKETIFQMVVT | 0.124 ± 0.48
6 | VTVMT | inactive
7 | VTVQK | inactive
8 | VVCMDLCFLAGSSMSDLDGC | inactive
9 | VVDCWSVKATSDSYDGMWGV | inactive
10 | VVDILFKMHEVDSVI | inactive
11 | VVDLIRNCKDRTVDLLDGIA | inactive
12 | VVDYTARWHRSYSSNGQRRM | inactive
13 | VVEPNTRVIWRLLHIDLDKQ | inactive
14 | VVGRSCLFYSIVMY | 0.419 ± 0.67
15 | VVHNYEITWYHL | 1.99 ± 0.074
16 | VVILGLHRVVDRRNAKVAKL | inactive
17 | VVLCVLEYYKFF | 0.848 ± 0.25
18 | VVLFYDSCSG | inactive
19 | VVLGADGRLPF | inactive
20 | VVLYRIGVLSN | inactive
21 | VVNIRDATWAFKLLCGEAHV | inactive
22 | VVNKPIHISSTYTLYSVVLA | inactive
23 | VVRLWE | inactive

Row | Substance | amyloid nucleation score
24 | VVSLPTNILSNTIGEYMEVQ | inactive
25 | VVSRVMTGSHHVRQFRM | inactive
26 | VVVMPTNSECCYQYGGMFPM | inactive
27 | VVVSSYNCVLVQVVICKWGR | 0.192 ± 0.85
28 | VVWQTHQVHMVMYERVCTWD | inactive
29 | VWDNMMIFLYWFFLKSCSHG | inactive
30 | VWDRRK | inactive
31 | VWDYLVAYYVALKNVTDSGQ | inactive
32 | VWFINFVCLFKGSLLCISES | inactive
33 | VWGLKFTRFVNTQLRRYPTL | inactive
34 | VWLMGMTYF | inactive
35 | VWLWPI | inactive
36 | VWRWGDLNSSGCCMWSRLNM | 1.99 ± 0.1
37 | VWVMSSWTVRIISPTVWMLV | inactive
38 | VWVRLTFKTSY | 0.678 ± 0.16
39 | VYCFV | inactive
40 | VYCSSVSCLEVWCGPLHTVR | 1.53 ± 0.081
41 | VYFFSGLGTCD | inactive
42 | VYFGSINYRRGGGYGYHSVI | 0.027 ± 0.71
43 | VYFLSVQLLYLFLSSALQRE | inactive
44 | VYFPTWFTLVFSPSKFWICI | inactive
45 | VYHWFWMQRLNGWFENQQRK | inactive
46 | VYIWRIMTTEIWVRVTWYAG | inactive

Row | Substance | amyloid nucleation score
47 | VYNQNAKVTN | inactive
48 | VYRRGDIATLLNDI | inactive
49 | VYTGWKKVACNA | -0.211 ± 0.53
50 | VYTRLVYIYQGVFCRIFSAC | 1.86 ± 0.094
51 | VYVMRGSVIWLCRMSMGCCA | inactive
52 | VYVSCRMWNFRKMMMPV | inactive
53 | VYWFKELADSITRCVKNYIY | inactive
54 | VYYNSVNVLSVSGCRLDGLN | 1.66 ± 0.11
55 | WAGESLS | inactive
56 | WASLGINR | inactive
57 | WAWNQSGFTPLYLCLEAWWS | inactive
58 | WAYRCTR | inactive
59 | WCASMRNVCYFVVFMESKLS | 0.294 ± 0.44
60 | WCCLETRLYL | 1.5 ± 0.1
61 | WCDLRFISWSFSVFWCV | inactive
62 | WCGGDYVLKNGKFALGVVGS | inactive
63 | WCGQWWLLASGVQSFQCCVY | 1.39 ± 0.13
64 | WCKCYMSSSWTC | inactive
65 | WCLNGSMYLLAVSSG | inactive
66 | WCRVIRTSGIYLGCASSGVV | inactive
67 | WCTFKNLPLWYWTWCAFQGG | inactive
68 | WCTSFGELEVYRVALILRTA | inactive
69 | WDIWCRS | inactive

Row | Substance | amyloid nucleation score
70 | WDYGKWE | inactive
71 | WEDMVDNHE | 1.32 ± 0.087
72 | WETFPHSFINVLIWDSFELV | inactive
73 | WFAWIH | inactive
74 | WFCLRTTVTPLDGFVLWYWE | inactive
75 | WFFLGFVLIIKWLGLHQYSF | inactive
76 | WFGEYPQFWRARSYFRTSDW | inactive
77 | WFGLIFFLICLYTPQLSLKL | inactive
78 | WFLFRINQFKL | inactive
79 | WFLSLLSQLGYGQVFVDFIP | inactive
80 | WGLRFFIWQPRDMFSACCTC | 1.6 ± 0.11
81 | WGMLRTTT | -0.567 ± 1.5
82 | WGSLMFRVYTKMFEALERVL | inactive
83 | WGVSLLVFHVTKQVRNRFYY | inactive
84 | WHNMSMMKSVPTYSGESHTR | 0.97 ± 0.18
85 | WHSMSCFSPKLGWDQFPVLR | inactive
86 | WIGRTLLDSYDGRFSIAIRD | inactive
87 | WIKLNLTYAHWWNMV | inactive
88 | WILLGRSSQWSWASGGNSGQ | 1.5 ± 0.092
89 | WILSYLDNCARSRQ | inactive
90 | WIRYTFYQNFRIL | -0.744 ± 0.8
91 | WISSGDIGRVVDWIQVCIEP | inactive
92 | WISSSGIPFDRYLLWYNSVG | inactive

Row | Substance | amyloid nucleation score
93 | WIYGYAVSLRSLYGLNLSM | inactive
94 | WKAFNVTPFRGWVNVAVLA | inactive
95 | WLCWQHSDLMNRDCNGLTLG | inactive
96 | WLESHGDHGFNEKDSWWPYF | inactive
97 | WLFMIARTYR | inactive
98 | WLFRGVVRNRRALARGIRAG | inactive
99 | WLHSGYGSNLPKATMRYCPN | inactive
100 | WLIFYVYIVGDPAWLLVFMS | inactive
101 | WLLEKYKLCMGWFFYSDFLT | inactive
102 | WLNKWTHGVIANFYVVSGHP | 1.64 ± 0.075
103 | WLSYKSH | 0.392 ± 0.54
104 | WLVKGPVCKGSAS | -0.116 ± 1.1
105 | WLVYPC | inactive
106 | WMVYDSLILFHDVRRSYLPM | inactive
107 | WNGILHMMVGGLKTLIGMDY | inactive
108 | WNLFDHRIGNKQRNGYDVYE | inactive
109 | WNLHLLICEKSHTMEVMLLR | inactive
110 | WNVPGVHCCIWVTRWEMGPT | 2.72 ± 0.078
111 | WNVWVLPIFIAFGLEPPRLE | 2.62 ± 0.059
112 | WNYHFPSS | 0.339 ± 0.37
113 | WPAVEKSLRRECFIVLRPFG | inactive
114 | WPGNWSQFNQCWCRETTCYV | inactive
115 | WPIATTMSKGVCVRRVRGRD | -0.411 ± 0.69

Row | Substance | amyloid nucleation score
116 | WPLTCCDFSPSDSAIGRM | inactive
117 | WPSLYHQMYGVYLGLLVILK | inactive
118 | WQCNCGASICASHKKCANMN | 0.128 ± 0.3
119 | WRDRNF | 1.3 ± 0.15
120 | WRHDMSIFQAQLSTLVGI | inactive
121 | WRLEL | inactive
122 | WRSMAFPVVK | 0.988 ± 0.13
123 | WRTSMVASILRVRWEYLKWK | inactive
124 | WSCESNDVHSCWWWLGGFNT | inactive
125 | WSLMCRVAYRYGRVRNSKSG | inactive
126 | WSLPSRLIRDVGSSWIYFCL | inactive
127 | WTGFFCNAVKTTTGFNALFL | inactive
128 | WTKECISIGRTWIYRRVGRG | 0 ± 0.59
129 | WTLRFLVKGSRCQFVAP | inactive
130 | WVCPCKSGMSQNWRFYNPSR | inactive
131 | WVDFFMFWGFAMNENKWFVH | inactive
132 | WVDFTTWLKFVFRSSIHYLL | 0.012 ± 0.68
133 | WVESESQETHHIAM | -0.113 ± 1
134 | WVKNLVFEGHVGA | inactive
135 | WVLDSERQMANSLWSGGGLA | inactive
136 | WVMCFVAWCSAFLRTNFIDM | inactive
137 | WVQVCCVNTNGRSFQLEGSI | 1.36 ± 0.097
138 | WVRSFMSLCFW | 0.974 ± 0.089

Row | Substance | amyloid nucleation score
139 | WVVPSWCHSFPLMIIKRTCC | inactive
140 | WWAISTLGMGNQLFLGVPRY | inactive
141 | WWDTLIAGSLPKLTWNQKTG | inactive
142 | WWTLKPGESVVRGLRVCGAP | inactive
143 | WYGLA | inactive
144 | WYIFFMEVMAGRY | inactive
145 | WYLSYSTIAFHYWEFYGYAD | inactive
146 | WYNDVMEVESLISYVDFFRE | inactive
147 | WYVYTNIRNVSYDIFDNKKF | 1.49 ± 0.11
148 | WYWSLA | -0.174 ± 0.59
149 | YACRMKEFYGCILSRVRVWL | inactive
150 | YAFISWNS | inactive
151 | YAFLTYFSKVIDSVF | 1.33 ± 0.076
152 | YAGSCK | inactive
153 | YANDANSCDWCICAFDRRSC | inactive
154 | YANFVRYNRLVKDRAVRSPK | inactive
155 | YARHSLDMRTSRDLTTLLGL | inactive
156 | YASVRVGMPSCDECGMFCLE | inactive
157 | YAVLNELVTRSCLYAVSFTI | inactive
158 | YAYEIRRLT | inactive
159 | YCIVLKYNQLLSTMSANNMY | 1.19 ± 0.1
160 | YCLFASMKDDAQGTQNCDRS | inactive
